The text below walks through data of patent US20040136985A1, “Methods of modifying behavior of CD9-expressing cells” (priority 2002, published 2004).

Values joined by “and” are separate entries in the source; they are usually repeats but may differ in a detail not shown here. Equal values may be shown once.

Test [1] addresses hamster integrin subunit β1 on CHO cells (hamster). As to the kind of experiment: flow cytometry, CD9-CHO-B2 cells. In general terms: Flow cytometry measures light scatter and fluorescence of single cells or particles in a stream.
The target is the same in test [2]. Description: flow cytometry, CD9-CHO-K1 cells.
Test [3] shares this target. Description: flow cytometry, MOCK-CHO-B2 cells.
Test [4] has the same target. As to the kind of experiment: flow cytometry, MOCK-CHO-K1 cells.
In test [5] the target is hamster integrin α5β1 on CHO cells (hamster). As to the kind of experiment: flow cytometry, CD9-CHO-K1 cells.
Test [6] shares this target. As to the kind of experiment: flow cytometry, MOCK-CHO-K1 cells.
For test [7], the target named is His6-rCD9 (human) (UniProt P21926). As to the kind of experiment: ELISA, absolute values, FN on immobilized His6-rCD9. Background: An ELISA detects its analyte on a solid surface through an enzyme-linked reagent.
Sequence of His6-rCD9 (human) (P21926 whole entry): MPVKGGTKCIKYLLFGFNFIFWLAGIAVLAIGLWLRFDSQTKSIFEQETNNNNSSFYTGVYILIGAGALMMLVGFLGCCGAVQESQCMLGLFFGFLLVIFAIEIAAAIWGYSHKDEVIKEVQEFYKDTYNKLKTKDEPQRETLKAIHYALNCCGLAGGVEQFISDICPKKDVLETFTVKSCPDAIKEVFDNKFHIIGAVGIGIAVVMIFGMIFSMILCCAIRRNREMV
The target in another test is peptide 5 (human). As to the kind of experiment: ELISA, FN 75 µg/ml on immobilized peptide (10 µM coat).
Sequence of peptide 5 (human) (chain, as listed by the source): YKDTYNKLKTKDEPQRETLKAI
The target in the next test is peptide 6 (human). The test is described as above.
Sequence of peptide 6 (human) (chain, as listed by the source): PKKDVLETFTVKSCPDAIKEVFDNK
The target in test [8] is His6-rCD9 (human) (UniProt P21926). Description: ELISA, FN titrated on immobilized His6-rCD9, 2.5 mM Ca2+.
The target in test [9] is purified platelet CD9 (human) (UniProt P21926). As to the kind of experiment: ELISA, FN titrated on immobilized platelet CD9, 2.5 mM CaCl2.
Sequence of purified platelet CD9 (human) (P21926 2-228 limits assumed): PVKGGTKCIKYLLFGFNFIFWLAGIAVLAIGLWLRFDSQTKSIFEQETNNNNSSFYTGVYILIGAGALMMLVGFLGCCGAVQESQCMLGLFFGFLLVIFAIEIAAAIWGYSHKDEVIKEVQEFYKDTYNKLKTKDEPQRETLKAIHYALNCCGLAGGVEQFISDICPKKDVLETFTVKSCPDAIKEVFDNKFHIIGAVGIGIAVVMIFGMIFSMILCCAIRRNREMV

Sequence of human plasma fibronectin, P02751 32-2296 (ligand) (P02751 other isoform, or with tags, fused parts or gaps limits assumed): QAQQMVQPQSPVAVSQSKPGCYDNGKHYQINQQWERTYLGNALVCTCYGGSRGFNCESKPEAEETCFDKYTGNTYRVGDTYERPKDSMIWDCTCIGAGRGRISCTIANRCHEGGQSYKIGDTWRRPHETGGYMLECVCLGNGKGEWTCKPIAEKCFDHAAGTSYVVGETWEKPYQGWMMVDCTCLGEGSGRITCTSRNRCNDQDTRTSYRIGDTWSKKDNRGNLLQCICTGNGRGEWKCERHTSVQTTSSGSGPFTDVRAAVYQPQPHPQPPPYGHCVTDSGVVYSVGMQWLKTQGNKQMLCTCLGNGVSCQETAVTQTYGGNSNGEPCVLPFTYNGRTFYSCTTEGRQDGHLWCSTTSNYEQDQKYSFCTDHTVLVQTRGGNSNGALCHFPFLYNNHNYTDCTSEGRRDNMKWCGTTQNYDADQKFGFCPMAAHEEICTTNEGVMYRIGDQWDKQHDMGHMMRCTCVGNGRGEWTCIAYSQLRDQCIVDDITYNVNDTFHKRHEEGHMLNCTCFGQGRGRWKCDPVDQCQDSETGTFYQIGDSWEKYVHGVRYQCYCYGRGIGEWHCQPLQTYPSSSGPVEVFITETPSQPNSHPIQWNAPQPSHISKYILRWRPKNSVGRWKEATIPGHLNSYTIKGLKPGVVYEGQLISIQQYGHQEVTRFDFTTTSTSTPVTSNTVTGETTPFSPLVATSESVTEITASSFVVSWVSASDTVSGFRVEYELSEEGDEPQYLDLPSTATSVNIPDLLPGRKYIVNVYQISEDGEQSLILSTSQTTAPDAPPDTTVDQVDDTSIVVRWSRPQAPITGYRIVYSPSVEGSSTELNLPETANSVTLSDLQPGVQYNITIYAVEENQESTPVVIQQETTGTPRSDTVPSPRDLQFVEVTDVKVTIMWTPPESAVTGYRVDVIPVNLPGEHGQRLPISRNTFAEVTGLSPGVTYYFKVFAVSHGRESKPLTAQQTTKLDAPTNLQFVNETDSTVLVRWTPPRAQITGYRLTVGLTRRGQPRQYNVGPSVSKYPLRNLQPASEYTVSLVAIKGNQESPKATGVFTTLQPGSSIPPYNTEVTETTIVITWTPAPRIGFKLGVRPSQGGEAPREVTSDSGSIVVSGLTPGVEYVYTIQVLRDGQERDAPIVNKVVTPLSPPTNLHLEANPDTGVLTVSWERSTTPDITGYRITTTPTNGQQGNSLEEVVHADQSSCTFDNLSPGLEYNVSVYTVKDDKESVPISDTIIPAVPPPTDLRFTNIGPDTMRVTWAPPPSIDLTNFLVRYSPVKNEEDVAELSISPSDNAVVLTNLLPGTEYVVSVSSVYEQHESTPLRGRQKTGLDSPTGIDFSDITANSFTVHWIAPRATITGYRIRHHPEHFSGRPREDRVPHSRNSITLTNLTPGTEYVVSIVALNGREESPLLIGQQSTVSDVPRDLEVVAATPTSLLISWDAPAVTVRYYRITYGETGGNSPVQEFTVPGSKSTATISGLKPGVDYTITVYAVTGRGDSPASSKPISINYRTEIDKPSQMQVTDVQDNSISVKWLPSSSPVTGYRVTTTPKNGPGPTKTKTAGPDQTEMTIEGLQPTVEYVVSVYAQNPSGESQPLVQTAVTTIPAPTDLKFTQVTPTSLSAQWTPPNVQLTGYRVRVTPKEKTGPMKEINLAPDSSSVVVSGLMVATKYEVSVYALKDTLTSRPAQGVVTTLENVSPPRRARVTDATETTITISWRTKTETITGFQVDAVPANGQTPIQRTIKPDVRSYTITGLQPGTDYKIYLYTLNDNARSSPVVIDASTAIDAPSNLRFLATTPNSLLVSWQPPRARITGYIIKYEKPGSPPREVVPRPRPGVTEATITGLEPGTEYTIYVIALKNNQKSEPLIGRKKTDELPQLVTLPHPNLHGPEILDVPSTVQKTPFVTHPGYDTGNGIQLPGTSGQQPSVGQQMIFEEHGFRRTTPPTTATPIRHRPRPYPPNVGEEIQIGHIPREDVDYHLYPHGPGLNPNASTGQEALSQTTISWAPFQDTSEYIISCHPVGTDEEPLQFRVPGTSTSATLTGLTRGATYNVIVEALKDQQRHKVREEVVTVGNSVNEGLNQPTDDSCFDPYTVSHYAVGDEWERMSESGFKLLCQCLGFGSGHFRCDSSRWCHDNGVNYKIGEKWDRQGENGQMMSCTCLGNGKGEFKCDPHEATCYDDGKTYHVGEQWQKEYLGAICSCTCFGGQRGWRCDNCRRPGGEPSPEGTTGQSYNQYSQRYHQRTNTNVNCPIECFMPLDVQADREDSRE

In the case of antibody 7E2, the % positive worked out at 100% in test [1], 97% in [2], 100% in test [3] and 100% in test [4]. In addition, the Fold-increase (over isotype control) (fold MFI over isotype control) in [1] was determined as 6; in test [2], 6; in [3], 0; in [4], 7.
antibody PB1: the % positive worked out at 98% in test [5] and 100% in test [6]. Also, the Fold-increase (over isotype control) (fold MFI over isotype control) in test [5] and in test [6] was 4 in each case.
As usually defined, the EC50 is the concentration needed to bring the measured effect to its halfway point. Low readings indicate higher potency in that assay, high ones lower potency in that assay. In turn, “human plasma fibronectin, P02751 32-2296 (ligand)” gave an ELISA binding against purified CD9 (% lower than purified CD9) with His6-rCD9 (human) [7] of 40. Moreover, the binding relative to intact platelet purified CD9 (% of binding to platelet CD9) with peptide 5 (human) was 19; in the test with peptide 6 (human), 65. Further, the concentration for a half-maximal effect (EC50) in the test with His6-rCD9 (human) [8] is 120 nM; in [9], 35.6 µg/mL and 81 nM.
